Assays:
Assay in all cases: IP-MS (HA-IP, label-free LC/MS-MS)
AHSA1 = details: HA-tagged Hop exogenously overexpressed in KO1 cells; n = 2; read off a plot
CDC37 = details: HA-tagged Hop exogenously overexpressed in KO1 cells; n = 2; read off a plot
DNAJA1 = details: HA-tagged Hop exogenously overexpressed in KO1 cells; n = 2; read off a plot
DNAJA2 = details: HA-tagged Hop exogenously overexpressed in KO1 cells; n = 2; read off a plot
HSPA4L = details: HA-tagged Hop exogenously overexpressed in KO1 cells; n = 2; read off a plot
HSPA4 = details: HA-tagged Hop exogenously overexpressed in KO1 cells; n = 2; read off a plot
HSPA5 = details: HA-tagged Hop exogenously overexpressed in KO1 cells; n = 2; read off a plot
HSPA6;HSPA7 = details: HA-tagged Hop exogenously overexpressed in KO1 cells; n = 2; read off a plot
HSPH1 = details: HA-tagged Hop exogenously overexpressed in KO1 cells; n = 2; read off a plot
HUWE1 = details: HA-tagged Hop exogenously overexpressed in KO1 cells; n = 2; right graph; read off a plot
PSMC1 = details: HA-tagged Hop exogenously overexpressed in KO1 cells; n = 2; left graph; read off a plot
PSMC2 = details: HA-tagged Hop exogenously overexpressed in KO1 cells; n = 2; left graph; read off a plot
PSMC3 = details: HA-tagged Hop exogenously overexpressed in KO1 cells; n = 2; left graph; read off a plot
PSMC4 = details: HA-tagged Hop exogenously overexpressed in KO1 cells; n = 2; left graph; read off a plot
PSMC5 = details: HA-tagged Hop exogenously overexpressed in KO1 cells; n = 2; left graph; read off a plot
PSMD11 = details: HA-tagged Hop exogenously overexpressed in KO1 cells; n = 2; left graph; read off a plot
PSMD12 = details: HA-tagged Hop exogenously overexpressed in KO1 cells; n = 2; left graph; read off a plot
PSMD13 = details: HA-tagged Hop exogenously overexpressed in KO1 cells; n = 2; left graph; read off a plot
PSMD3 = details: HA-tagged Hop exogenously overexpressed in KO1 cells; n = 2; left graph; read off a plot
UBA1 = details: HA-tagged Hop exogenously overexpressed in KO1 cells; n = 2; right graph; read off a plot
UBE2N;UBE2NL = details: HA-tagged Hop exogenously overexpressed in KO1 cells; n = 2; right graph; read off a plot
USP10 = details: HA-tagged Hop exogenously overexpressed in KO1 cells; n = 2; right graph; read off a plot
USP5 = details: HA-tagged Hop exogenously overexpressed in KO1 cells; n = 2; right graph; read off a plot
USP7 = details: HA-tagged Hop exogenously overexpressed in KO1 cells; n = 2; right graph; read off a plot

other: normalized enrichment (log2) WT Hop / K8A,K229A Hop (AHSA1): 3 log2 | other: normalized enrichment (log2) WT Hop / K8A,K229A Hop (CDC37): 3.2 log2 | other: normalized enrichment (log2) WT Hop / K8A,K229A Hop (DNAJA1): 3.9 log2 | other: normalized enrichment (log2) WT Hop / K8A,K229A Hop (DNAJA2): 4.3 log2 | other: normalized enrichment (log2) WT Hop / K8A,K229A Hop (HSPA4L): 3 log2 | other: normalized enrichment (log2) WT Hop / K8A,K229A Hop (HSPA4): 1.7 log2 | other: normalized enrichment (log2) WT Hop / K8A,K229A Hop (HSPA5): 2.5 log2 | other: normalized enrichment (log2) WT Hop / K8A,K229A Hop (HSPA6;HSPA7): 4.5 log2 | other: normalized enrichment (log2) WT Hop / K8A,K229A Hop (HSPH1): 4 log2 | other: normalized enrichment (log2) WT Hop / K8A,K229A Hop (HUWE1): 2.7 log2 | other: normalized enrichment (log2) WT Hop / K8A,K229A Hop (PSMC1): 0.95 log2 | other: normalized enrichment (log2) WT Hop / K8A,K229A Hop (PSMC2): 0.65 log2 | other: normalized enrichment (log2) WT Hop / K8A,K229A Hop (PSMC3): 1 log2 | other: normalized enrichment (log2) WT Hop / K8A,K229A Hop (PSMC4): 0.25 log2 | other: normalized enrichment (log2) WT Hop / K8A,K229A Hop (PSMC5): 1.3 log2 | other: normalized enrichment (log2) WT Hop / K8A,K229A Hop (PSMD11): 1.7 log2 | other: normalized enrichment (log2) WT Hop / K8A,K229A Hop (PSMD12): 3.1 log2 | other: normalized enrichment (log2) WT Hop / K8A,K229A Hop (PSMD13): 2.1 log2 | other: normalized enrichment (log2) WT Hop / K8A,K229A Hop (PSMD3): 1.5 log2 | other: normalized enrichment (log2) WT Hop / K8A,K229A Hop (UBA1): 0.85 log2 | other: normalized enrichment (log2) WT Hop / K8A,K229A Hop (UBE2N;UBE2NL): 0.8 log2 | other: normalized enrichment (log2) WT Hop / K8A,K229A Hop (USP10): 2.5 log2 | other: normalized enrichment (log2) WT Hop / K8A,K229A Hop (USP5): 2.3 log2 | other: normalized enrichment (log2) WT Hop / K8A,K229A Hop (USP7): 2.9 log2
Substance: HA-tagged WT Hop (from UniProt P31948) K8A; K229A

Reference: PMC7688965
